From PMC4960319, “The anti-sigma factor RsrA responds to oxidative stress by reburying its hydrophobic core” (Nature Communications, 2016)

Experiments:
Settings in all cases: both partners purified
σR (residues 5-227) [1] = biological target: T1, σR (residues 5-227) (Streptomyces coelicolor, UniProt Q7AKG9 5-227); experiment: stopped-flow tryptophan fluorescence; 25 °C, without zinc (EDTA-treated RsrA); kon: pseudo-first-order, σR 125 nM, RsrA 1.25-2.5 μM; koff: 2.5 μM complex displaced with 25 μM σR Trp88Ile Trp119Ile; Kd = koff/kon; 50 mM Tris pH 7.5, 100 mM NaCl, 2 mM DTT
T1 construct: ECF sigma factor σR (SigR) of Streptomyces coelicolor; residues 5-227 subcloned into pET21a with a C-terminal stop codon for tagless expression; also called sigma factor σR; SigR; source: E. coli BL21(DE3), purified without tags (ammonium sulfate precipitation, Q-Sepharose, Hi-Load S75)

σR (residues 5-227) [2] = biological target: T1, σR (residues 5-227); experiment: stopped-flow tryptophan fluorescence; 25 °C, with zinc; kon: pseudo-first-order, σR 125 nM, RsrA 1.25-2.5 μM; koff: 2.5 μM complex displaced with 25 μM σR Trp88Ile Trp119Ile; Kd = koff/kon; 50 mM Tris pH 7.5, 100 mM NaCl, 2 mM DTT
σR (residues 5-227) [3] = biological target: T1, σR (residues 5-227); experiment: stopped-flow tryptophan fluorescence; 35 °C, without zinc (EDTA-treated RsrA); kon: pseudo-first-order, σR 125 nM, RsrA 1.25-2.5 μM; koff: 2.5 μM complex displaced with 25 μM σR Trp88Ile Trp119Ile; Kd = koff/kon; 50 mM Tris pH 7.5, 100 mM NaCl, 2 mM DTT
σR Trp88Ile Trp119Ile = biological target: T2, σR Trp88Ile Trp119Ile (Streptomyces coelicolor, UniProt Q7AKG9 5-227, Trp88Ile | Trp119Ile); experiment: ITC; competition ITC as for the wild-type complex (Figure 3a): RsrAred.Zn2+ (100 μM) titrated into σR (10 μM, cell) in the presence of 50 μM weak competitor RsrA* Cys11Ser Cys44Ser; 35 °C, 50 mM Tris pH 7.5, 100 mM NaCl, 2 mM DTT
T2 construct: ECF sigma factor σR (SigR) of Streptomyces coelicolor; mutant of the tagless construct of residues 5-227 (all σR mutants were similarly purified); The limits are those of the wild-type construct; source: E. coli BL21(DE3), purified as wild-type σR

σR (residues 5-227) [4] = biological target: T1, σR (residues 5-227); experiment: stopped-flow tryptophan fluorescence; 35 °C, with zinc; kon: pseudo-first-order, σR 125 nM, RsrA 1.25-2.5 μM; koff: 2.5 μM complex displaced with 25 μM σR Trp88Ile Trp119Ile; Kd = koff/kon; 50 mM Tris pH 7.5, 100 mM NaCl, 2 mM DTT
σR (residues 5-227) [5] = biological target: T1, σR (residues 5-227); experiment: ITC; with zinc (+), RsrA preincubated with 1 mM ZnCl2 and buffer exchanged; direct titration for weaker binding mutants (methods: 10 μM RsrA in the cell, 100 μM σR in the syringe); 35 °C, 50 mM Tris pH 7.5, 100 mM NaCl, 2 mM DTT; single binding site model
σR (residues 5-227) [6] = biological target: T1, σR (residues 5-227); experiment: ITC; with zinc (+); 35 °C, 50 mM Tris pH 7.5, 100 mM NaCl, 2 mM DTT; the table does not tell whether this sub-nanomolar value came from a direct or a competition titration
σR (residues 5-227) [7] = biological target: T1, σR (residues 5-227); experiment: ITC; without zinc (-); direct titration; 35 °C, 50 mM Tris pH 7.5, 100 mM NaCl, 2 mM DTT; single binding site model

B1: RsrA wild type (natural protein, Streptomyces coelicolor, UniProt Q7AKG8 1-105, looked up)
chain: MSCGEPHETDCSEILDHLYEFLDKEMPDSDCVKFEHHFEECSPCLEKYGLEQAVKKLVKRCCGQDDVPGDLRAKVMGRLDLIRSGQSVPEHDVAAAPSSSAPQES
notes: Reduced protein; used with one equivalent of zinc or after EDTA treatment without zinc (told by the assay); also called RsrAred.Zn2+ (with one zinc); RsrAred (without zinc); source: E. coli BL21(DE3) pLysS, purified by a His-tag that was removed by thrombin; not shown: His tag, N-terminal, cleaved
What does the source list for B1?
Kd (σR (residues 5-227) [1]): 0.0249 µM; koff (σR (residues 5-227) [1]): 0.286 s⁻¹; kon (σR (residues 5-227) [1]): 1.15e+07 M⁻¹ s⁻¹; Kd (σR (residues 5-227) [2]): 0.00013 µM; koff (σR (residues 5-227) [2]): 0.00071 s⁻¹; kon (σR (residues 5-227) [2]): 5.4e+06 M⁻¹ s⁻¹; Kd (σR (residues 5-227) [3]): 0.0624 µM; koff (σR (residues 5-227) [3]): 1.08 s⁻¹; kon (σR (residues 5-227) [3]): 1.73e+07 M⁻¹ s⁻¹; Kd (σR Trp88Ile Trp119Ile): 0.000173 µM; stoichiometry N (σR Trp88Ile Trp119Ile): 1.17; Kd (σR (residues 5-227) [4]): 0.00027 µM; koff (σR (residues 5-227) [4]): 0.0024 s⁻¹; kon (σR (residues 5-227) [4]): 8.9e+06 M⁻¹ s⁻¹

B2: RsrA V54A L57A (natural protein, Streptomyces coelicolor, UniProt Q7AKG8 1-105, looked up)
chain: MSCGEPHETDCSEILDHLYEFLDKEMPDSDCVKFEHHFEECSPCLEKYGLEQAAKKAVKRCCGQDDVPGDLRAKVMGRLDLIRSGQSVPEHDVAAAPSSSAPQES
notes: also called RsrA Val54Ala Leu57Ala; source: E. coli BL21(DE3) pLysS, purified by a His-tag that was removed by thrombin; not shown: His tag, N-terminal, cleaved
B2 was tested. Which Kd (σR (residues 5-227) [5]) did it give?
Its Kd is 0.105 µM.

B3: RsrA V75A L79A (natural protein, Streptomyces coelicolor, UniProt Q7AKG8 1-105, looked up)
chain: MSCGEPHETDCSEILDHLYEFLDKEMPDSDCVKFEHHFEECSPCLEKYGLEQAVKKLVKRCCGQDDVPGDLRAKAMGRADLIRSGQSVPEHDVAAAPSSSAPQES
notes: also called RsrA Val75Ala Leu79Ala; source: E. coli BL21(DE3) pLysS, purified by a His-tag that was removed by thrombin; not shown: His tag, N-terminal, cleaved
B3 was tested. Which Kd (σR (residues 5-227) [5]) did it give?
The Kd was 0.0821 µM.

B4: RsrA* (natural protein, Streptomyces coelicolor, UniProt Q7AKG8 1-105, looked up)
chain: MSAGEPHETDCSEILDHLYEFLDKEMPDSDAVKFEHHFEECSPCLEKYGLEQAVKKLVKRAAGQDDVPGDLRAKVMGRLDLIRSGQSVPEHDVAAAPSSSAPQES
notes: also called RsrA*red.Zn2+; source: E. coli BL21(DE3) pLysS, purified by a His-tag that was removed by thrombin; not shown: His tag, N-terminal, cleaved
With B4 as the binder, how does the Kd (σR (residues 5-227) [6]) read?
The Kd was 0.00023 µM.

And the Kd (σR (residues 5-227) [7])?
Its Kd is 0.183 µM.

B5: RsrA* C11H C41H C44H (natural protein, Streptomyces coelicolor, UniProt Q7AKG8 1-105, looked up)
chain: MSAGEPHETDHSEILDHLYEFLDKEMPDSDAVKFEHHFEEHSPHLEKYGLEQAVKKLVKRAAGQDDVPGDLRAKVMGRLDLIRSGQSVPEHDVAAAPSSSAPQES
notes: also called RsrA* Cys11His Cys41His Cys44His; source: E. coli BL21(DE3) pLysS, purified by a His-tag that was removed by thrombin; not shown: His tag, N-terminal, cleaved
How did the Kd (σR (residues 5-227) [5]) turn out when B5 was run?
The Kd was 0.305 µM.

B6: RsrA* C11S (natural protein, Streptomyces coelicolor, UniProt Q7AKG8 1-105, looked up)
chain: MSAGEPHETDSSEILDHLYEFLDKEMPDSDAVKFEHHFEECSPCLEKYGLEQAVKKLVKRAAGQDDVPGDLRAKVMGRLDLIRSGQSVPEHDVAAAPSSSAPQES
notes: source: E. coli BL21(DE3) pLysS, purified by a His-tag that was removed by thrombin; not shown: His tag, N-terminal, cleaved
B6 was tested. Which Kd (σR (residues 5-227) [5]) did it give?
The Kd was 0.079 µM.

B7: RsrA* C11S C41S (natural protein, Streptomyces coelicolor, UniProt Q7AKG8 1-105, looked up)
chain: MSAGEPHETDSSEILDHLYEFLDKEMPDSDAVKFEHHFEESSPCLEKYGLEQAVKKLVKRAAGQDDVPGDLRAKVMGRLDLIRSGQSVPEHDVAAAPSSSAPQES
notes: as for B6
For B7, which Kd (σR (residues 5-227) [5]) is on record?
The Kd was 0.24 µM.

B8: RsrA* C11S C44S (natural protein, Streptomyces coelicolor, UniProt Q7AKG8 1-105, looked up)
chain: MSAGEPHETDSSEILDHLYEFLDKEMPDSDAVKFEHHFEECSPSLEKYGLEQAVKKLVKRAAGQDDVPGDLRAKVMGRLDLIRSGQSVPEHDVAAAPSSSAPQES
notes: also called RsrA* Cys11Ser Cys44Ser; source: E. coli BL21(DE3) pLysS, purified by a His-tag that was removed by thrombin; not shown: His tag, N-terminal, cleaved
Does B8 bind (σR Trp88Ile Trp119Ile)?
Result: binds
